The target in assay [1] is T1, Human CD93 recombinant protein (Sino Biological Inc, Catalog #12589-H08H) (human, UniProt Q9NPY3 22-580).
T1 construct: Biotinylated (EZ-LINK NHS-PEG4 biotin) in the BLI assays; also called hCD93; His-tagged human CD93
T1 sequence (looked up): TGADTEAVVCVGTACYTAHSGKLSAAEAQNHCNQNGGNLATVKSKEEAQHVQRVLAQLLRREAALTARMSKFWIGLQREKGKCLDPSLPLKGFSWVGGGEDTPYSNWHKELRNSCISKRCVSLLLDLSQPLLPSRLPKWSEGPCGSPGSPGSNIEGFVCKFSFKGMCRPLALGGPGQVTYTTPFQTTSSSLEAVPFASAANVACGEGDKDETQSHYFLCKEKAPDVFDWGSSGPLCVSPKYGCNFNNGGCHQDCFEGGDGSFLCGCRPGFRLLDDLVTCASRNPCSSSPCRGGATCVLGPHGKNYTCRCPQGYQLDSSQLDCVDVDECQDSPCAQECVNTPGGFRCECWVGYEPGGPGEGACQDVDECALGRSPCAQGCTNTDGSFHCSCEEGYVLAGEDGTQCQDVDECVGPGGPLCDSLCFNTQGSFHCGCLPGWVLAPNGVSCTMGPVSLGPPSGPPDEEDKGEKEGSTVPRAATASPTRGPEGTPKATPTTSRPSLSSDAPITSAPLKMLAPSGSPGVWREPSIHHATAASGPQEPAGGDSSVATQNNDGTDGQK
Kind of assay: BLI (Octet QKe), biotinylated human CD93 on streptavidin biosensors. As to the method: The binding affinity of anti-CD93 antibodies were determined with bio-layer interferometry using Octet QKe (Fortebio). Human CD93 recombinant protein (Sino Biological Inc, Catalog #12589-H08H) or cynomolgus CD93 protein (made in-house) were biotinylated using EZ-LINK NHS-PEG4 biotin (Thermo Fisher Scientific). Streptavidin biosensors (Fortebio) were used to load biotinylated CD93 protein (300 seconds in 5 μg/ml). The baseline was stabilized for 60 seconds in 1× kinetics buffer (Fortebio) before anti-CD93 antibodies at a serial dilution were allowed to associate for 300 seconds with captured protein. Then the sensors were dissociated in 1× kinetics buffer for 600 seconds.

For assay [2], the target named is T2, Human CD93 on cells (human CD93 expressing CHO cells; HUVEC, U937 and KG1a cells) (human, UniProt Q9NPY3 22-652).
T2 construct: whole, on cells; also called hCD93 expressing CHO cells; hCD93 CHO cells
T2 sequence (looked up): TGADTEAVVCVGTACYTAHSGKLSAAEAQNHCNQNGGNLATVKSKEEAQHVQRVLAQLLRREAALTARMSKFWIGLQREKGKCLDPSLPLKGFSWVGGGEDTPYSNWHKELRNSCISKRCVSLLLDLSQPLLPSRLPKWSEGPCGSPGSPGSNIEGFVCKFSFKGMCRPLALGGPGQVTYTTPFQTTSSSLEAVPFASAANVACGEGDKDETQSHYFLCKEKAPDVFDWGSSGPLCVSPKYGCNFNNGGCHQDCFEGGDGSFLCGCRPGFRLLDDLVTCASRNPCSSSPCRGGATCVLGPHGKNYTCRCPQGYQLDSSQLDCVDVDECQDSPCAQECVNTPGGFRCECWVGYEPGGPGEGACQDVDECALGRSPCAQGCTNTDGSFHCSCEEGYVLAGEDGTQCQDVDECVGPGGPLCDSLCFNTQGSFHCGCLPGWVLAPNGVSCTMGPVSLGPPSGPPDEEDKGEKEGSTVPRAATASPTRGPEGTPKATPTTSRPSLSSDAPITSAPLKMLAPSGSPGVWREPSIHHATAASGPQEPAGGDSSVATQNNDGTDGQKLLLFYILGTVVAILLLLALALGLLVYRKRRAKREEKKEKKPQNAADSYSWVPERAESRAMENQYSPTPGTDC
The assay is described as follows: flow cytometry, CD93 expressing CHO cells, antibody 10 ug/ml, FITC-A. As to the method:
Human CD93 expressing CHO cells were detached by incubation with TrypLE reagents (Thermos Fisher), which preserves the integrity of CD93 on the cell surface. […] After washing with FACS buffer twice, the samples were acquired in NovoCyte Flow Cytometer and analyzed by NovoExpress software.

The target of assay [3] is T2, Human CD93 on cells (human CD93 …). The assay is described as follows: flow cytometry, CHO cells overexpressing human CD93, antibody 0.01ug, mIgG1 as control, APC-A.
Assay [4] has the same target. The assay is described as above. The source holds these as a separate data set.
For assay [5], the target named is T1, Human CD93 recombinant protein (Sino …). Kind of assay: ELISA, His-tagged human CD93 coated, OD450. The protocol:
His-tagged human CD93 was coated onto a 96 well plate at 1 μg/mL in 1×PBS overnight at 4° C. The plate was washed with ELISA wash buffer (Boston BioProduct, Inc.) and the wells were blocked with ELISA blocking buffer for 1 hour at 37° C. […] The plate was washed with ELISA wash Buffer. […] The plate was washed with ELISA wash Buffer. HRP substrate was added for indirect detection of the antibodies binding to CD93.

Like-named read-outs stand apart in the source and are kept apart here.

B1: 20C7 (antibody, V domains shown)
VH: EVQLQQSGPELVNPGASVKMSCKASGYTFTAYVMHWVKQKPGQGLEWIGYIFPYNDGTEYNEKFKGKATLTSDKSSSTAYMELSSLTSEDSAVYYCARRTDGNPYTMDYWGQGTSVTVSS
VL: DIVMTQSHKFMSTSVGDRVSITCKASQDVSTAVAWYQQKPGQSPKLLIHSASYRYTGVPDRFTGRGSGTDFTFTISSVQAEDLAVYYCQQHYSTPFTFGSGTKLEIK
notes: Mouse hybridoma monoclonal antibody
With B1, the binding result in assay [1] and in assay [2] was “binds” in each case.

B2: 19E12 (antibody, V domains shown)
VH: QVQLQQSGAELVRPGASVKLSCKASGYTFTDYEMHWVRQTPVHGLEWIGGIDPETGGTAYNQKFKGKATLTADKSSSTAYMELRSLTSEDSAVYYCTRGAWFAYWGQGTLVTVSA
VL: QAVVTQESALTTSPGETVTLTCRSSTGAVTTSNSANWVQEKPDHLFTGLIGGTNNRAPGVPARFSGSLIGDKAALTITGAQTEDEAIYFCALWYNNHFVFGGGTKLTVL
notes: as for B1
As for B2, the binding result in assay [1] and in assay [2] was “binds” in each case.

B3: humanized 17B10 H1L3 (antibody, mouse IgG1, V domains shown)
VH: QVQLVQSGAEVKKPGSSVKVSCKASGYAFSSYWLNWVRQAPGQGLEWFGRIYPGDGDTDYNGKFKGRVTLTADKSTSTAYMELSSLRSEDTAVYFCVRGDGYWAMDYWGQGTTVTVSS
VL: DIVMTQSPDSLAVSLGERATINCRFSKSLLHSNGITYLYWYQQKPGQPPKLLIYQMSNLASGVPDRFSGSGSGTDFTLTISSLQAEDVAVYYCAQNLELPWTFGGGTKLEIK
notes: Chimeric Fc: human CH1, mouse IgG1 CH2 and CH3
As for B3, the “M2 gate, % of cells” value in assay [3] is 99.2%.

B4: humanized 17B10 H2L3 (antibody, mouse IgG1, V domains shown)
VH: QVQLVQSGAEVVKSGASVKVSCKASGYAFSSYWLNWVRQAPGQGLEWFGRIYPGDGDTDYNGKFKGRVTLIRDTSTSTVYMELTSLTSEDTAVYYCVRGDGYWAMDYWGQGTLVTVSS
VL: DIVMTQSPDSLAVSLGERATINCRFSKSLLHSNGITYLYWYQQKPGQPPKLLIYQMSNLASGVPDRFSGSGSGTDFTLTISSLQAEDVAVYYCAQNLELPWTFGGGTKLEIK
notes: as for B3
As for B4, the “M2 gate, % of cells” value in assay [4] turned out to be 99.2%.

B5: 17B10 (hybridoma) (antibody, V domains shown)
VH: QVQLQQSGPELVKPGASVKISCKASGYAFSSYWLNWVKQRPGKGLEWFGRIYPGDGDTDYNGKFKGKATLTADKSSSTAYMQLRSLTSEDSAVYFCVRGDGYWAMDYWGQGTSVTVSS
VL: DIVMTQAAFSNPVTLGTSASISCRFSKSLLHSNGITYLYWYLQKPGQSPQLLIYQMSNLASGVPDRFSSSGSGTDFTLRISRVEAEDVGVYYCAQNLELPWTFGGGTKLEIK
notes: as for B1
For the molecule B5, the EC50 in assay [5] was determined as 0.153 nM.

B6: humanized 17B10 H3L1 (antibody, mouse IgG1, V domains shown)
VH: QVQLVQSGPEVKKPGESLKISCKASGYAFSSYWLNWVRQMPGKGLEWMGRIYPGDGDTDYNGKFKGQVTISADKSSGTAYLQLSSLKASDTAVYFCVRGDGYWAMDYWGQGTLVTVSS
VL: DIVMTQSPLSLPVTPGEPASISCRFSQSLLHSNGITYLYWYLQKPGQSPQLLIYQMSNLASGVPDRFSGSGSGTDFTLKISRVEAEDVGVYYCAQNLELPWTFGGGTKLEIK
notes: as for B3
In the case of B6, in assay [4], the “M2 gate, % of cells” value worked out at 99.5%.

B7: humanized 17B10 H1L1 (antibody, mouse IgG1, V domains shown)
VH: QVQLVQSGAEVKKPGSSVKVSCKASGYAFSSYWLNWVRQAPGQGLEWFGRIYPGDGDTDYNGKFKGRVTLTADKSTSTAYMELSSLRSEDTAVYFCVRGDGYWAMDYWGQGTTVTVSS
VL: DIVMTQSPLSLPVTPGEPASISCRFSQSLLHSNGITYLYWYLQKPGQSPQLLIYQMSNLASGVPDRFSGSGSGTDFTLKISRVEAEDVGVYYCAQNLELPWTFGGGTKLEIK
notes: as for B3
Consider B7, for which, in assay [4], the “M2 gate, % of cells” value was 99%.

B8: 17B10-hIgG1 (recombinant parental 17B10-hFc) (antibody, V domains shown)
VH: QVQLQQSGPELVKPGASVKISCKASGYAFSSYWLNWVKQRPGKGLEWFGRIYPGDGDTDYNGKFKGKATLTADKSSSTAYMQLRSLTSEDSAVYFCVRGDGYWAMDYWGQGTSVTVSS
VL: DIVMTQAAFSNPVTLGTSASISCRFSKSLLHSNGITYLYWYLQKPGQSPQLLIYQMSNLASGVPDRFSSSGSGTDFTLRISRVEAEDVGVYYCAQNLELPWTFGGGTKLEIK
notes: also called recombinant parental 17B10 with the human Fc; 17B10 chimeric
Regarding B8, in assay [5], the EC50 was 0.0167 nM.

B9: humanized 17B10 H3L2 (antibody, mouse IgG1, V domains shown)
VH: QVQLVQSGPEVKKPGESLKISCKASGYAFSSYWLNWVRQMPGKGLEWMGRIYPGDGDTDYNGKFKGQVTISADKSSGTAYLQLSSLKASDTAVYFCVRGDGYWAMDYWGQGTLVTVSS
VL: DIVMTQTPLSLPVTPGEPASISCRFSQSLLHSNGITYLYWYLQKPGQSPQLLIYTMSNLASGVPDRFSGSGSGTDFTLKISRVEAEDVGVYYCAQNLELPWTFGGGTKLEIK
notes: as for B3
Turning to B9, the “M2 gate, % of cells” value in assay [3] is 96.7%.

B10: humanized 17B10 H1L2 (antibody, mouse IgG1, V domains shown)
VH: QVQLVQSGAEVKKPGSSVKVSCKASGYAFSSYWLNWVRQAPGQGLEWFGRIYPGDGDTDYNGKFKGRVTLTADKSTSTAYMELSSLRSEDTAVYFCVRGDGYWAMDYWGQGTTVTVSS
VL: DIVMTQTPLSLPVTPGEPASISCRFSQSLLHSNGITYLYWYLQKPGQSPQLLIYTMSNLASGVPDRFSGSGSGTDFTLKISRVEAEDVGVYYCAQNLELPWTFGGGTKLEIK
notes: as for B3
On to B10, for which the “M2 gate, % of cells” value in assay [4] turned out to be 92.1%.

B11: humanized 17B10 H2L1 (antibody, mouse IgG1, V domains shown)
VH: QVQLVQSGAEVVKSGASVKVSCKASGYAFSSYWLNWVRQAPGQGLEWFGRIYPGDGDTDYNGKFKGRVTLIRDTSTSTVYMELTSLTSEDTAVYYCVRGDGYWAMDYWGQGTLVTVSS
VL: DIVMTQSPLSLPVTPGEPASISCRFSQSLLHSNGITYLYWYLQKPGQSPQLLIYQMSNLASGVPDRFSGSGSGTDFTLKISRVEAEDVGVYYCAQNLELPWTFGGGTKLEIK
notes: as for B3
B11: in assay [3], the “M2 gate, % of cells” value is 98.2%.

Source of the values: US20230365705A1 (DYNAMICURE BIOTECHNOLOGY, published 2023).
